Results taken from the supplement of paper PMC5998384.

What was measured:
HeLa Kyoto [1] = experiment: solubility change mitosis vs G1/S (difference of NP-40 vs SDS log2 ratios) (log2 ratio difference); higher = more soluble in mitosis
HeLa Kyoto [2] = experiment: thermal stability score vs G1/S (z-score of summed log2 fold changes over temperatures); higher = more thermally stable than in G1/S
HeLa Kyoto [3] = experiment: solubility in G1/S (NP-40 vs SDS abundance) (log2 ratio); higher = more soluble; settings: cell cycle stage: G1/S
HeLa Kyoto [4] = experiment: melting temperature (median over replicates), in situ; higher = more thermally stable
[5] = cell cycle stage: early G1 (4.5 h after nocodazole release)
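Throughout, for melting temperature (median over replicates), in situ: HeLa Kyoto cells synchronized by double thymidine or nocodazole block, proteins quantified by TMT10plex mass spectrometry, three independent biological replicates.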
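Throughout, for solubility change mitosis vs G1/S (difference of NP-40 vs SDS log2 ratios): synchronized HeLa Kyoto cells (double thymidine block for G1/S, nocodazole release for mitosis), protein amounts in NP-40 versus SDS lysates quantified by mass spectrometry, three biological replicates.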
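Throughout, for solubility in G1/S (NP-40 vs SDS abundance): HeLa Kyoto cells arrested at G1/S by double thymidine block, proteins quantified by TMT10plex mass spectrometry in mild NP-40 versus SDS extracts, three biological replicates.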
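Throughout, for thermal stability score vs G1/S (z-score of summed log2 fold changes over temperatures): synchronized HeLa Kyoto cells, proteins quantified by TMT10plex mass spectrometry, three biological replicates, mitosis taken 0.5 h after nocodazole release, G1/S directly after double thymidine block.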

| Sequence | solubility change mitosis (log2) (HeLa Kyoto [1]) | thermal stability score (HeLa Kyoto [2]; [5]) | thermal stability score (HeLa Kyoto [2]; cell cycle stage: mitosis) | solubility in G1/S (log2) (HeLa Kyoto [3]) | melting temperature (HeLa Kyoto [4]; cell cycle stage: G1/S) [°C] | melting temperature (HeLa Kyoto [4]; cell cycle stage: mitosis) [°C] |
| --- | --- | --- | --- | --- | --- | --- |
| MDSVEKGAATSVSNPRGRPSRGRPPKLQRNSRGGQGRGVEKPPHLAALILARGGSKGIPLKNIKHLAGVPLIGWVLRAALDSGAFQSVWVSTDHDEIENVAKQFGAQVHRRSSEVSKDSSTSLDAIIEFLNYHNEVDIVGNIQATSPCLHPTDLQKVAEMIREEGYDSVFSVVRRHQFRWSEIQKGVREVTEPLNLNPAKRPRRQDWDGELYENGSFYFAKRHLIEMGYLQGGKMAYYEMRAEHSVDIDVDIDWPIAEQRVLRYGYFGKEKLKEIKLLVCNIDGCLTNGHIYVSGDQKEIISYDVKDAIGISLLKKSGIEVRLISERACSKQTLSSLKLDCKMEVSVSDKLAVVDEWRKEMGLCWKEVAYLGNEVSDEECLKRVGLSGAPADACSTAQKAVGYICKCNGGRGAIREFAEHICLLMEKVNNSCQK [CMAS] | 0.303 | -0.251 | -0.391 | -0.289 | 50.8 | 50 |
| MDTESTYSGYSYYSSHSKKSHRQGERTRERHKSPRNKDGRGSEKSVTIQPPTGEPLLGNDSTRTEEVQDDNWGETTTAITGTSEHSISQEDIARISKDMEDSVGLDCKRYLGLTVASFLGLLVFLTPIAFILLPPILWRDELEPCGTICEGLFISMAFKLLILLIGTWALFFRKRRADMPRVFVFRALLLVLIFLFVVSYWLFYGVRILDSRDRNYQGIVQYAVSLVDALLFIHYLAIVLLELRQLQPMFTLQVVRSTDGESRFYSLGHLSIQRAALVVLENYYKDFTIYNPNLLTASKFRAAKHMAGLKVYNVDGPSNNATGQSRAMIAAAARRRDSSHNELYYEEAEHERRVKKRKARLVVAVEEAFIHIQRLQAEEQQKAPGEVMDPREAAQAIFPSMARALQKYLRITRQQNYHSMESILQHLAFCITNGMTPKAFLERYLSAGPTLQYDKDRWLSTQWRLVSDEAVTNGLRDGIVFVLKCLDFSLVVNVKKIPFIILSEEFIDPKSHKFVLRLQSETSV [VANGL1] | 0.00763 | -1.85 | -3.36 | -0.322 | 56 | 54.7 |
| MDTPENVLQMLEAHMQSYKGNDPLGEWERYIQWVEENFPENKEYLITLLEHLMKEFLDKKKYHNDPRFISYCLKFAEYNSDLHQFFEFLYNHGIGTLSSPLYIAWAGHLEAQGELQHASAVLQRGIQNQAEPREFLQQQYRLFQTRLTETHLPAQARTSEPLHNVQVLNQMITSKSNPGNNMACISKNQGSELSGVISSACDKESNMERRVITISKSEYSVHSSLASKVDVEQVVMYCKEKLIRGESEFSFEELRAQKYNQRRKHEQWVNEDRHYMKRKEANAFEEQLLKQKMDELHKKLHQVVETSHEDLPASQERSEVNPARMGPSVGSQQELRAPCLPVTYQQTPVNMEKNPREAPPVVPPLANAISAALVSPATSQSIAPPVPLKAQTVTDSMFAVASKDAGCVNKSTHEFKPQSGAEIKEGCETHKVANTSSFHTTPNTSLGMVQATPSKVQPSPTVHTKEALGFIMNMFQAPTLPDISDDKDEWQSLDQNEDAFEAQFQKNVRSSGAWGVNKIISSLSSAFHVFEDGNKENYGLPQPKNKPTGARTFGERSVSRLPSKPKEEVPHAEEFLDDSTVWGIRCNKTLAPSPKSPGDFTSAAQLASTPFHKLPVESVHILEDKENVVAKQCTQATLDSCEENMVVPSRDGKFSPIQEKSPKQALSSHMYSASLLRLSQPAAGGVLTCEAELGVEACRLTDTDAAIAEDPPDAIAGLQAEWMQMSSLGTVDAPNFIVGNPWDDKLIFKLLSGLSKPVSSYPNTFEWQCKLPAIKPKTEFQLGSKLVYVHHLLGEGAFAQVYEATQGDLNDAKNKQKFVLKVQKPANPWEFYIGTQLMERLKPSMQHMFMKFYSAHLFQNGSVLVGELYSYGTLLNAINLYKNTPEKVMPQGLVISFAMRMLYMIEQVHDCEIIHGDIKPDNFILGNGFLEQDDEDDLSAGLALIDLGQSIDMKLFPKGTIFTAKCETSGFQCVEMLSNKPWNYQIDYFGVAATVYCMLFGTYMKVKNEGGECKPEGLFRRLPHLDMWNEFFHVMLNIPDCHHLPSLDLLRQKLKKVFQQHYTNKIRALRNRLIVLLLECKRSRK [BUB1] | -0.112 | 0.554 | 1.15 | -0.019 | 48.8 | 49.9 |
| MDVLAEEFGNLTPEQLAAPIPTVEEKWRLLPAFLKVKGLVKQHIDSFNYFINVEIKKIMKANEKVTSDADPMWYLKYLNIYVGLPDVEESFNVTRPVSPHECRLRDMTYSAPITVDIEYTRGSQRIIRNALPIGRMPIMLRSSNCVLTGKTPAEFAKLNECPLDPGGYFIVKGVEKVILIQEQLSKNRIIVEADRKGAVGASVTSSTHEKKSRTNMAVKQGRFYLRHNTLSEDIPIVIIFKAMGVESDQEIVQMIGTEEHVMAAFGPSLEECQKAQIFTQMQALKYIGNKVRRQRMWGGGPKKTKIEEARELLASTILTHVPVKEFNFRAKCIYTAVMVRRVILAQGDNKVDDRDYYGNKRLELAGQLLSLLFEDLFKKFNSEMKKIADQVIPKQRAAQFDVVKHMRQDQITNGMVNAISTGNWSLKRFKMDRQGVTQVLSRLSYISALGMMTRISSQFEKTRKVSGPRSLQPSQWGMLCPSDTPEGEACGLVKNLALMTHITTDMEDGPIVKLASNLGVEDVNLLCGEELSYPNVFLVFLNGNILGVIRDHKKLVNTFRLMRRAGYINEFVSISTNLTDRCVYISSDGGRLCRPYIIVKKQKPAVTNKHMEELAQGYRNFEDFLHESLVEYLDVNEENDCNIALYEHTINKDTTHLEIEPFTLLGVCAGLIPYPHHNQSPRNTYQCAMGKQAMGTIGYNQRNRIDTLMYLLAYPQKPMVKTKTIELIEFEKLPAGQNATVAVMSYSGYDIEDALVLNKASLDRGFGRCLVYKNAKCTLKRYTNQTFDKVMGPMLDAATRKPIWRHEILDADGICSPGEKVENKQVLVNKSMPTVTQIPLEGSNVPQQPQYKDVPITYKGATDSYIEKVMISSNAEDAFLIKMLLRQTRRPEIGDKFSSRHGQKGVCGLIVPQEDMPFCDSGICPDIIMNPHGFPSRMTVGKLIELLAGKAGVLDGRFHYGTAFGGSKVKDVCEDLVRHGYNYLGKDYVTSGITGEPLEAYIYFGPVYYQKLKHMVLDKMHARARGPRAVLTRQPTEGRSRDGGLRLGEMERDCLIGYGASMLLLERLMISSDAFEVDVCGQCGLLGYSGWCHYCKSSCHVSSLRIPYACKLLFQELQSMNIIPRLKLSKYNE [POLR3B] | -0.161 | 0.664 | 1.01 | -0.184 | 48.9 | 49.6 |
| MDVNIAPLRAWDDFFPGSDRFARPDFRDISKWNNRVVSNLLYYQTNYLVVAAMMISIVGFLSPFNMILGGIVVVLVFTGFVWAAHNKDVLRRMKKRYPTTFVMVVMLASYFLISMFGGVMVFVFGITFPLLLMFIHASLRLRNLKNKLENKMEGIGLKRTPMGIVLDALEQQEEGINRLTDYISKVKE [ARL6IP5] | -0.126 | 0.94 | 0.797 | -0.0879 | 56.4 | 57.5 |
| MDVTSSSGGGGDPRQIEETKPLLGGDVSAPEGTKMGAVPCRRALLLCNGMRYKLLQEGDIQVCVIRHPRTFLSKILTSKFLRRWEPHHLTLADNSLASATPTGYMENSVSYSAIEDVQLLSWENAPKYCLQLTIPGGTVLLQAANSYLRDQWFHSLQWKKKIYKYKKVLSNPSRWEVVLKEIRTLVDMALTSPLQDDSINQAPLEIVSKLLSENTNLTTQEHENIIVAIAPLLENNHPPPDLCEFFCKHCRERPRSMVVIEVFTPVVQRILKHNMDFGKCPRLRLFTQEYILALNELNAGMEVVKKFIQSMHGPTGHCPHPRVLPNLVAVCLAAIYSCYEEFINSRDNSPSLKEIRNGCQQPCDRKPTLPLRLLHPSPDLVSQEATLSEARLKSVVVASSEIHVEVERTSTAKPALTASAGNDSEPNLIDCLMVSPACSTMSIELGPQADRTLGCYVEILKLLSDYDDWRPSLASLLQPIPFPKEALAHEKFTKELKYVIQRFAEDPRQEVHSCLLSVRAGKDGWFQLYSPGGVACDDDGELFASMVHILMGSCYKTKKFLLSLAENKLGPCMLLALRGNQTMVEILCLMLEYNIIDNNDTQLQIISTLESTDVGKRMYEQLCDRQRELKELQRKGGPTRLTLPSKSTDADLARLLSSGSFGNLENLSLAFTNVTSACAEHLIKLPSLKQLNLWSTQFGDAGLRLLSEHLTMLQVLNLCETPVTDAGLLALSSMKSLCSLNMNSTKLSADTYEDLKAKLPNLKEVDVRYTEAW [CMIP] | -0.224 | 0.861 | 0.998 | 0.271 | 50.5 | 48.7 |
| MDWVMKHNGPNDASDGTVRLRGLPFGCSKEEIVQFFQGLEIVPNGITLTMDYQGRSTGEAFVQFASKEIAENALGKHKERIGHRYIEIFRSSRSEIKGFYDPPRRLLGQRPGPYDRPIGGRGGYYGAGRGSMYDRMRRGGDGYDGGYGGFDDYGGYNNYGYGNDGFDDRMRDGRGMGGHGYGGAGDASSGFHGGHFVHMRGLPFRATENDIANFFSPLNPIRVHIDIGADGRATGEADVEFVTHEDAVAAMSKDKNNMQHRYIELFLNSTPGGGSGMGGSGMGGYGRDGMDNQGGYGSVGRMGMGNNYSGGYGTPDGLGGYGRGGGGSGGYYGQGGMSGGGWRGMY [HNRNPH3] | 0.282 | 3.81 | 9.58 | -0.0906 | 45.4 | 47.7 |
| MEAAAVTVTRSATRRRRRQLQGLAAPEAGTQEEQEDQEPRPRRRRPGRSIKDEEEETVFREVVSFSPDPLPVRYYDKDTTKPISFYLSSLEELLAWKPRLEDGFNVALEPLACRQPPLSSQRPRTLLCHDMMGGYLDDRFIQGSVVQTPYAFYHWQCIDVFVYFSHHTVTIPPVGWTNTAHRHGVCVLGTFITEWNEGGRLCEAFLAGDERSYQAVADRLVQITQFFRFDGWLINIENSLSLAAVGNMPPFLRYLTTQLHRQVPGGLVLWYDSVVQSGQLKWQDELNQHNRVFFDSCDGFFTNYNWREEHLERMLGQAGERRADVYVGVDVFARGNVVGGRFDTDKSLELIRKHGFSVALFAPGWVYECLEKKDFFQNQDKFWGRLERYLPTHSICSLPFVTSFCLGMGARRVCYGQEEAVGPWYHLSAQEIQPLFGEHRLGGDGRGWVRTHCCLEDAWHGGSSLLVRGVIPPEVGNVAVRLFSLQAPVPPKIYLSMVYKLEGPTDVTVALELTTGDAGSCHIGGISVLNAETSSRHSLRPLRVPPTKLARWVGRCGRQLSGGWVQHCYEVSLRGCLLLDLLVCFSRPPGSREEESFTCRLGEIQVVDAASLLAPLPQVQAVTISHIRWQPSASEREGPPALLQLSCTLHWSFLLSQVRCFRIHCWGGMSDDSPGRELPRPEMPMFLGLAFATQYRIVDLLVEAAGPGQDRRMEFLVEPVPKEGFRVPQAEWGRAVLLYSAPA [ENGASE] | -0.0912 | 0.438 | -0.925 | -0.179 | 53.6 | 53.4 |
| MEADASVDMFSKVLEHQLLQTTKLVEEHLDSEIQKLDQMDEDELERLKEKRLQALRKAQQQKQEWLSKGHGEYREIPSERDFFQEVKESENVVCHFYRDSTFRCKILDRHLAILSKKHLETKFLKLNVEKAPFLCERLHIKVIPTLALLKDGKTQDYVVGFTDLGNTDDFTTETLEWRLGSSDILNYSGNLMEPPFQNQKKFGTNFTKLEKKTIRGKKYDSDSDDD [TXNDC9] | 0.0132 | 1 | 0.636 | 0.273 | 52.4 | 52.7 |
